Results on eight molecules are retold here after patent US20250163183A1 (COAGULANT THERAPEUTICS, published 2025).

Usually Kd stands for the free concentration of one partner at which half of the binding sites on the other are occupied at equilibrium, for simple one-to-one binding. A high value points to a looser complex. For orientation: koff means the first-order rate constant of dissociation. High values mean a short-lived complex, low ones a long-lived complex. What is called kon is the rate constant with which the complex forms. Low values mean slow association, high ones fast association.

In test [1] the target is T1, human activated protein C (APC) (human, UniProt P04070 43-461). Put plainly: cell-based or functional assay.
T1 sequence (P04070 other isoform, or with tags, fused parts or gaps): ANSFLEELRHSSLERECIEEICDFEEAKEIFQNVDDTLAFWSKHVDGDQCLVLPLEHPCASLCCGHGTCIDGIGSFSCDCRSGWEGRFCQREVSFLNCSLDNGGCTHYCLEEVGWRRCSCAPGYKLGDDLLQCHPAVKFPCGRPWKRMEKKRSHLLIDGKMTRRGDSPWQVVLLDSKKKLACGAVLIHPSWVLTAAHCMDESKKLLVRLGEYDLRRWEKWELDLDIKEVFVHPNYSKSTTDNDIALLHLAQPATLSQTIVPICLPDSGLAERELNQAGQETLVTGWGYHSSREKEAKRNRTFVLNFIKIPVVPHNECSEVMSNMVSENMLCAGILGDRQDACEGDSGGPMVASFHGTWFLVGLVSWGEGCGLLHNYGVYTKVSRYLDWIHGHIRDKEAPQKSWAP
Test [2] has as its target T1, human activated protein C (APC). The test is described as follows: BLI, VHH captured via anti-V5, APC in solution. For orientation: In BLI a coated tip is dipped into the sample, and binding shifts an interference pattern.
The target is the same in test [3]. Put plainly: cell-based or functional assay. The source holds these as a separate data set.
Test [4] concerns the target T2, FXIa (UniProt P03951 19-625).
T2 construct: also called factor XIa
Put plainly: ELISA, FXIa coated at 10 µg/mL, HRP-anti-V5, n=3. (An ELISA detects its analyte on a solid surface through an enzyme-linked reagent.)

For test [5], the target named is T1, human activated protein C (APC). Put plainly: BLI (Octet): nanobody captured on anti-V5 sensor, dipped in 500 nM APC; buffer sensor reads 0.06.
The target in test [6] is T3, human protein C (PC) zymogen (human, UniProt P04070 43-197; P04070 200-461).
T3 construct: Bought
T3 sequence (P04070 43-197, chain 1 of 2): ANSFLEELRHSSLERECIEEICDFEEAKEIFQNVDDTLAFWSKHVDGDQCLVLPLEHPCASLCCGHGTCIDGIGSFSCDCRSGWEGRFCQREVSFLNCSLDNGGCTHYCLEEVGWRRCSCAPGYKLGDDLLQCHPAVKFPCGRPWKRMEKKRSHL
T3 sequence (P04070 200-461, chain 2 of 2): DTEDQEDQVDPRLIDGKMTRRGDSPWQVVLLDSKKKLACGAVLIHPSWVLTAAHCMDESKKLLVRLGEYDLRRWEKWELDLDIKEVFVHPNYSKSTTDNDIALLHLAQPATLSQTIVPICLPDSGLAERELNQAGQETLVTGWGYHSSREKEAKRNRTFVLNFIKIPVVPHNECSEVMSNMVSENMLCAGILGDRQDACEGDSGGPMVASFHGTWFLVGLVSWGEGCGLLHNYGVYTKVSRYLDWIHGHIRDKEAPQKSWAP
The test is described as follows: ELISA.

The target in test [7] is T4, FVIIa (UniProt P08709 61-466).
T4 construct: also called factor VIIa
T4 sequence (looked up): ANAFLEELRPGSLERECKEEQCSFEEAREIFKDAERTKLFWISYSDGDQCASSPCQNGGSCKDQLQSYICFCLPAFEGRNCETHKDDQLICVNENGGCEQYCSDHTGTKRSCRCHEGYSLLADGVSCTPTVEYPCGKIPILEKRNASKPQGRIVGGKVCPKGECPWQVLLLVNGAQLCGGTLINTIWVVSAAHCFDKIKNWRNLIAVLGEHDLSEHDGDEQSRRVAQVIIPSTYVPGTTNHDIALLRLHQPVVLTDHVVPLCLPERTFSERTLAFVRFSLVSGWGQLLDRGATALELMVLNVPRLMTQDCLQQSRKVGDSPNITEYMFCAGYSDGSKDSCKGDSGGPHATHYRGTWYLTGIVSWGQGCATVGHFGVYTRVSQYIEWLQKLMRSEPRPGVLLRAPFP
Put plainly: ELISA, FVIIa coated at 10 µg/mL, HRP-anti-V5, n=3.

Test [8] has as its target T3, human protein C (PC) zymogen. Put plainly: ELISA screen, PC-coated wells, OD450, n=2 [Continued].
For test [9] the target is unchanged. The test is described as above. This is another data set of the same source.
The target is the same in test [10]. Put plainly: ELISA screen, PC-coated wells, OD450, n=2.
Test [11] has as its target T1, human activated protein C (APC). Put plainly: BLI; end tied to LP2 by Table 5; lower end of the kon range; LP2.
Test [12] shares this target. The test is described as follows: BLI; end tied to LP12 by Table 5; lower end of the koff range, LP9 set apart; LP12.
Test [13] shares this target. Put plainly: BLI (Octet), nanobody captured, 5 APC concentrations, 1:1 model; written in place of a bar.
Test [14] shares this target. The test is described as follows: BLI; end tied to LP8 by Table 5; upper end of the kon range; LP8.

T2 sequence (P03951 19-625 limits assumed): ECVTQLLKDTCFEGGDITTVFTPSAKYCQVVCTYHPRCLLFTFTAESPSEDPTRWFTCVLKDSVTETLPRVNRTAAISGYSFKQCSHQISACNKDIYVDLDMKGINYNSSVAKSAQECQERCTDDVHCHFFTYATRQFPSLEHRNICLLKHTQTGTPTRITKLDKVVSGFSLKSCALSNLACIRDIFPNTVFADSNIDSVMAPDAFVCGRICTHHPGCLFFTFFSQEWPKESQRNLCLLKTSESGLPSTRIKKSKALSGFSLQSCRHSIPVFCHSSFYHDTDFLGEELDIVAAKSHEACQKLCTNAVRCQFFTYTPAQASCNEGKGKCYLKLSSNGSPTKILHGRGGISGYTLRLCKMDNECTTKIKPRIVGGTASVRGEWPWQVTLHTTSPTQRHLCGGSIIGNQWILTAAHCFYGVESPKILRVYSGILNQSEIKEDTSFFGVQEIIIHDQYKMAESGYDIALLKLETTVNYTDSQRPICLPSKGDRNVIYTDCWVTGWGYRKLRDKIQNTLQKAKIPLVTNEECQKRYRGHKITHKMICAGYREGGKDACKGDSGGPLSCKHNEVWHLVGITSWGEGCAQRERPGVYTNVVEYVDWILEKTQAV

B1: LP10 (SR16983-R3-P3-E06) (VHH, not shown: small tags and cut ends)
VHH: QVQLVESGGGLVQAGGSLRLSCAASGTIESINDMGWYRQAPGKQRELVATVSSSGMTNYADSAKGRFTISRDNAKNTMYLQMNSLKPEDTAVYYCKAHISRSYYYDSLGYDYWGQGTQVTVSS
notes: Llama VHH purified from E. coli periplasm
Regarding B1, the “APC plasma T1/2 (min; mean)” value in test [1] was found to be 29.3 min. For the same molecule, in [2], binding was characterised by a dissociation constant (Kd) of 4.5 nM, the off-rate constant (koff) turned out to be 0.0011 s⁻¹ and the kon stood at 230000 M⁻¹ s⁻¹. For the same molecule, the “APC-mediated histone H3 cleavage, 500 nM nanobody” value (from here on “APC-mediated histone H3 cleavage”) in test [3] was less than 75 % residual activity. The binding result in [4] is given as “no binding (tested: 2 µg/mL)”. In addition, the “APC binding (nm)” value in test [5] turned out to be 0.29 nm. Further, the binding result in [6] is recorded as “no binding”. Also, the binding result in [7] is reported as “no binding (tested: 2 µg/mL)”.

B2: LP18 (SR16983-R4-P1-A11) (VHH, not shown: small tags and cut ends)
VHH: QLQLVESGGGLVQPGGSLRLSCAASGFTFSTKWMYWVRQGPGKGLERVAAIDAGGTSTYYADSVKGRFTISRDNSENTVYLQMNSLESADTAVYYCARSEGGLFRGRGTQVTVSA
notes: as for B1
On to B2, for which the “APC plasma T1/2 (min; mean)” value in test [1] is 16.1 min. This molecule had a Kd in test [2] of 4.5 nM. Moreover, the dissociation rate constant (koff) in [2] came to 0.0011 s⁻¹. This molecule showed an on-rate (kon) in [2] of 240000 M⁻¹ s⁻¹. Moreover, the “R46/R41 cleavage ratio of PAR1 by APC” value in test [3] was greater than 1 ratio. In addition, the binding result was “no binding (tested: 2 µg/mL)” in [4], “no binding” in test [8] and “no binding (tested: 2 µg/mL)” in test [7]. Also, the “APC binding (nm)” value in test [5] is 0.29 nm.

B3: LP20 (SR16983-R4-P1-B07) (VHH, not shown: small tags and cut ends)
VHH: QLQLVESGGGLVQAGGSLRLSCTASGSTVRVTAGGWYRQTPGNERELVADIDNGGSTTYADSVKGRFTISRDNAKNAVDLQMNSLKPEDTAVYRCFVIAIPDSAPRPRAYWGQGTEVTVSS
notes: as for B1
As for B3, the “APC plasma T1/2 (min; mean)” value in test [1] worked out at 85.6 min. In addition, in test [2], the affinity, expressed as Kd, was 1.9 nM; the off-rate (koff) came out at 0.0007 s⁻¹; the association rate constant (kon) was found to be 380000 M⁻¹ s⁻¹. In addition, in test [3], the “Protac-APTT clotting time, 300 nM nanobody” value (shortened to “Protac-APTT clotting time”) is greater than 90%. Further, the binding result in test [4] is listed as “no binding (tested: 2 µg/mL)”. Also, in test [5], the “APC binding (nm)” value came out at 0.3 nm. Besides, the binding result in [9] is recorded as “no binding”. Besides, the binding result in [7] is “no binding (tested: 2 µg/mL)”.

B4: LP2 (SR16983-R2-P3-H10) (VHH, not shown: small tags and cut ends)
VHH: QVQLVESGGGLVQAGGSLRLSCAASGRPISAYTWAWFRQAPGKEREFVAAITSSAGTTYYADSVRGRFTISRDNAENTVYLRMNTLKPEDTAVYYCAADDQGDNWYDHWGQGTQVTVSS
notes: as for B1
B4: the “APC plasma T1/2 (min; mean)” value in test [1] is 38.2 min. In addition, in test [2], the Kd is 8.8 nM, the koff is 0.0011 s⁻¹ and the kon was determined as 130000 M⁻¹ s⁻¹. In addition, in [3], the “APC-mediated histone H3 cleavage” value was less than 75 % residual activity and the “Protac-APTT clotting time” value is greater than 90%. For the same molecule, the binding result in [4] is “no binding (tested: 2 µg/mL)”. The “APC binding (nm)” value in test [5] amounted to 0.29 nm. Besides, the binding result in test [10] is “no binding”. This molecule also showed an association rate constant (kon) in test [11] of 126000 M⁻¹ s⁻¹. For the same molecule, in test [7], the binding result was “no binding (tested: 2 µg/mL)”.

B5: LP12 (SR16983-R3-P3-F06) (VHH, not shown: small tags and cut ends)
VHH: QLQLVESGGGLVQAGDSLRLSCTSSGLTASTYAMAWFRQAPGKEREFVAVVDWKGDTTYANSVKGRFTLSRDNGKNTNYLQMNSLQPEDTALYYCAARGSPGYVARLYAHWGRGTQVTVSS
notes: as for B1
For the molecule B5, the koff in test [12] turned out to be 0.000259 s⁻¹; in test [2], 0.00026 s⁻¹. The “APC plasma T1/2 (min; mean)” value in test [1] stood at 50.1 min. The same molecule gave an equilibrium dissociation constant (Kd) in [2] of 0.68 nM. Besides, in [2], the kon stood at 380000 M⁻¹ s⁻¹. Besides, in test [3], the “APC-mediated histone H3 cleavage” value was less than 75 % residual activity. In addition, the figures for the binding result in test [4], in test [6] and in test [7] were “no binding (tested: 2 µg/mL)”, “no binding” and “no binding (tested: 2 µg/mL)”, respectively. In test [5], the “APC binding (nm)” value stood at 0.31 nm.

B6: LP9 (SR16983-R3-P3-B05) (VHH, not shown: small tags and cut ends)
VHH: EVQLVESGGGLVQAGGSLRLSCAASGRTFVGSYVMGWFRQAPGKEREFVAASSRSTGNTVYLDSVKGRFTVSRDDAKNTLYLQMNSLKTEDTAVYYCATRASINYNAATWPYWGQGTQVTVSS
notes: as for B1
As to B6, the Kd is less than 0.01 nM in test [13] and 0.003 nM in [2]. The “APC plasma T1/2 (min; mean)” value in test [1] is 27.7 min. In test [2], this molecule registered a koff of 6.3e-07 s⁻¹. In addition, the kon in [2] worked out at 210000 M⁻¹ s⁻¹. In [3], the “Protac-APTT clotting time” value was greater than 90%. Moreover, the binding result in test [4] is “no binding (tested: 2 µg/mL)”; in test [9] it was “no binding”; in test [7] it was “no binding (tested: 2 µg/mL)”. Further, the “APC binding (nm)” value in [5] worked out at 0.33 nm.

B7: LP8 (SR16983-R3-P3-A04) (VHH, not shown: small tags and cut ends)
VHH: QLQLVESGGGLVEAGGSLRLSCAASGRTFSSGALGWFRQAPGKEREFVATIRWSDERTQYSEFVKGRFTISRDNAKNTVYLQMNNLQPEDTAVYYCRSTVGNLLYWGQGTQVTVSS
notes: as for B1
As to B7, in test [2], binding was characterised by a dissociation constant (Kd) of 2.8 nM, the koff came to 0.0017 s⁻¹ and the association rate constant (kon) turned out to be 620000 M⁻¹ s⁻¹. Further, in test [3], the “APC-mediated histone H3 cleavage” value is less than 75 % residual activity and the “Protac-APTT clotting time” value was greater than 90%. Besides, in [4], the binding result is listed as “no binding (tested: 2 µg/mL)”. Moreover, the “APC binding (nm)” value in test [5] is 0.32 nm. The binding result in [10] is recorded as “no binding”. Besides, the association rate constant (kon) in test [14] stood at 622000 M⁻¹ s⁻¹. The binding result in test [7] is “no binding (tested: 2 µg/mL)”.

B8: LP7 (SR16983-R3-P2-H08) (VHH, not shown: small tags and cut ends)
VHH: EVQLVESGGGLVQAGGSLRLSCAASGTTFDMNSMGWYRQGPGFKRELVATISMGGDTNYADSVKGRFTISRANAKNTVYMQMNSLKPEDTAVYYCNAERIWPNRRTFWGQGTQVTVSS
notes: as for B1
Regarding B8, the “APC plasma T1/2 (min; mean)” value in test [1] was found to be 33.9 min. In test [2], this molecule gave an equilibrium dissociation constant (Kd) of 9.4 nM, a dissociation rate constant (koff) of 0.0041 s⁻¹ and a kon of 440000 M⁻¹ s⁻¹. In addition, the “APC-mediated histone H3 cleavage” value in [3] was less than 75 % residual activity. Besides, the binding result in test [4] is reported as “no binding (tested: 2 µg/mL)”. Moreover, the binding result in test [8] was “no binding”. For the same molecule, the “APC binding (nm)” value in test [5] is 0.34 nm. The binding result in [7] is “no binding (tested: 2 µg/mL)”.
